Each block holds one molecule with its values, some of them ahead of it. C16 = C16 alkyl tail covalently attached at the N-terminus
Experiments:
[1] = target: Recombinant human BMP-2 (Medtronic Sofamor Danek) (human) (UniProt P12643); assay: capture of BMP-2 by a 20 µL PA gel from medium containing 25 ng BMP-2, 37 °C, 4 h, sandwich ELISA of the medium
[2] = target: T1, Human recombinant BMP-2 with hexahistidine-tag fused at the C-terminus (AdipoGen) (human, UniProt P12643 283-396); assay: SPR (Biacore 3000): His-BMP-2 captured on Ni2+-NTA chip, PA injected at pH 8.4. Fit with the 2:1 binding model. Column ka.
T1 construct: Immobilised on a Ni2+-NTA chip for SPR; also called His-BMP-2; hexahistidine-tagged BMP-2
T1 sequence: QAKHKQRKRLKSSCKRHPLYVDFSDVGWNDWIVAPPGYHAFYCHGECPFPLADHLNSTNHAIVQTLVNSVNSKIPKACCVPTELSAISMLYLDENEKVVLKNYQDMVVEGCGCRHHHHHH
Experimental: (§1) The SPR measurements were performed using a Biacore 3000 instrument (GE Healthcare, Pittsburgh, Pa.) equipped with a NTA Sensor Chip (GE Healthcare) at 25° C. HBS-P eluent buffer and HBS-EP dispenser buffer were purchased from GE Healthcare. NiCl 2 solution (500 μM in eluent buffer), elution buffer (300 mM imidazole and 500 mM NaCl in water), and regeneration buffer (10 mM HEPES, 150 mM NaCl, 0.005% polysorbate 20, 350 mM EDTA at pH 7.4) were prepared according to Biacore specifications. Human recombinant BMP-2 with hexahistidine-tag fused at the C-terminus (AdipoGen, San Diego, Calif.) was initially reconstituted in PBS at 20 μg/ml, and diluted to 500 nM in eluent buffer.
(§2) Ni²⁺ was first loaded on the NTA chip for 5 min at a flow rate of 20 μl/min, and then His-BMP-2 for 1.25 min at 4 μl/min. Afterwards, each PA sample was injected for 2 min at […], followed by 5 min dissociation at […]. […] To compare binding affinity of the PAs, the sensograms were processed and analyzed with BIAevaluation 4.1 software. The sensogram from blank injection was subtracted from the PA sensograms, and the apparent equilibrium dissociation constant KD was determined using 2:1 binding model, which assumes bivalent analyte interaction with two dissociation constants kd,1 and kd,2, where kd,1 is more dominant.

[3] = target: T1, Human recombinant BMP-2 with …; assay: SPR (Biacore 3000): His-BMP-2 captured on Ni2+-NTA chip, PA injected at pH 8.4. Fit with the 2:1 binding model. Column kd,1 (major dissociation rate constant).
Experimental: as §1, §2

[4] = target: T1, Human recombinant BMP-2 with …; assay: SPR (Biacore 3000), His-BMP-2 immobilised on Ni2+-NTA chip, PA injected at pH 8.4, 2:1 binding model, KD from the major dissociation rate and ka; diluent PA (no binding segment), prepared at pH 8.4
Experimental: As a control, the BMP-2-binding PA ([…], pH 7.4) was injected to a bare NTA-dextran chip, and we observed non-specific binding of the PA to the surface (FIG. 4). It is contemplated that the fibrillar nanostructures can be entangled to the NTA-dextran surface. To circumvent this, the BMP-2-binding PA was prepared at pH 8.4, where more glutamic acid residues are deprotonated to induce greater electrostatic repulsion between the PA molecules, and sonicated the solution to further break up the supramolecular assembly. […] The best fit was obtained by using the 2:1 binding model, which had two dissociation constants: a major dissociation constant (k_{d,1}) and a minor dissociation constant (k_{d,2}) with the ratio of their contributions (R₁/R₂).
as §1, with “Human recombinant BMP-2 with hexahistidine-tag fused at the C-terminus (AdipoGen, San Diego, Calif.) was initially reconstituted in PBS at 20 μg/ml, and diluted to 500 nM in eluent buffer.” left out

- amount of BMP-2 bound on the gel after 4 h [1]: 15.5 ng
Molecule: diluted BMP-2-binding PA (D-BMP2b-PA), co-assembly of BMP2b-PA and diluent PA at 1:1 weight ratio

- kon [2]: 5300 M⁻¹ s⁻¹
- koff [3]: 0.011 s⁻¹
- Kd [4]: 2100 nM
B1: diluent PA, C16-V3A3E3-COOH (peptide)
peptide: C16-VVVAAAEEE-OH
notes: In SPR it was used as a solution at pH 8.4; In the capture assay it was a 1 wt % nanofiber gel formed with CaCl2; also called diluent PA gel

— patent US20160159869A1 (NORTHWESTERN UNIVERSITY, published 2016)
